From patent US20110118447A1

Assays:
[1] = target: binding partner of C5A (XPA23); test: Biacore K-off
[2] = target: binding partner of C5A (XPA23); test: Biacore

| Binder | fold difference in affinity vs original [1] [fold] | fold affinity vs original [2] [fold] | fold difference in affinity vs original [2] [fold] |
| --- | --- | --- | --- |
| C5A (XPA23) VH S30R (antibody, V domains shown) VH: EVQLLESGGGLVQPGGSLRLSCAASGFTFRKYFMFWVRQAPGKGLEWVSVISPSGGMTRYADSVKGRFTISRDNSKNTLYLQMNSLRAEDTAVYYCARVGYGGNSDYWGQGTLVTVSS VL: DIQMTQSPSSVSASVGDRLTIICRASQDINRWLAWYQQTPGNAPKLLIHSATSLQSGVPSRFSGSGSGTDFTLTINSLQPEDFATYYCQQADSFPLTFGGGTKVEIK | 0.1 | 0.1 |  |
| C5A (XPA23) VH Y32E (antibody, V domains shown) VH: EVQLLESGGGLVQPGGSLRLSCAASGFTFSKEFMFWVRQAPGKGLEWVSVISPSGGMTRYADSVKGRFTISRDNSKNTLYLQMNSLRAEDTAVYYCARVGYGGNSDYWGQGTLVTVSS VL: DIQMTQSPSSVSASVGDRLTIICRASQDINRWLAWYQQTPGNAPKLLIHSATSLQSGVPSRFSGSGSGTDFTLTINSLQPEDFATYYCQQADSFPLTFGGGTKVEIK | 0.12 | 0.12 |  |
| C5A (XPA23) VL F94P (antibody, V domains shown) VH: EVQLLESGGGLVQPGGSLRLSCAASGFTFSKYFMFWVRQAPGKGLEWVSVISPSGGMTRYADSVKGRFTISRDNSKNTLYLQMNSLRAEDTAVYYCARVGYGGNSDYWGQGTLVTVSS VL: DIQMTQSPSSVSASVGDRLTIICRASQDINRWLAWYQQTPGNAPKLLIHSATSLQSGVPSRFSGSGSGTDFTLTINSLQPEDFATYYCQQADSPPLTFGGGTKVEIK | 0.17 |  |  |
| C5A (XPA23) VL L96A (antibody, V domains shown) VH: EVQLLESGGGLVQPGGSLRLSCAASGFTFSKYFMFWVRQAPGKGLEWVSVISPSGGMTRYADSVKGRFTISRDNSKNTLYLQMNSLRAEDTAVYYCARVGYGGNSDYWGQGTLVTVSS VL: DIQMTQSPSSVSASVGDRLTIICRASQDINRWLAWYQQTPGNAPKLLIHSATSLQSGVPSRFSGSGSGTDFTLTINSLQPEDFATYYCQQADSFPATFGGGTKVEIK | 0.26 |  |  |
| C5A (XPA23) VL F94V (antibody, V domains shown) VH: EVQLLESGGGLVQPGGSLRLSCAASGFTFSKYFMFWVRQAPGKGLEWVSVISPSGGMTRYADSVKGRFTISRDNSKNTLYLQMNSLRAEDTAVYYCARVGYGGNSDYWGQGTLVTVSS VL: DIQMTQSPSSVSASVGDRLTIICRASQDINRWLAWYQQTPGNAPKLLIHSATSLQSGVPSRFSGSGSGTDFTLTINSLQPEDFATYYCQQADSVPLTFGGGTKVEIK | 0.2 |  |  |
| C5A (XPA23) VL S93W (antibody, V domains shown) VH: EVQLLESGGGLVQPGGSLRLSCAASGFTFSKYFMFWVRQAPGKGLEWVSVISPSGGMTRYADSVKGRFTISRDNSKNTLYLQMNSLRAEDTAVYYCARVGYGGNSDYWGQGTLVTVSS VL: DIQMTQSPSSVSASVGDRLTIICRASQDINRWLAWYQQTPGNAPKLLIHSATSLQSGVPSRFSGSGSGTDFTLTINSLQPEDFATYYCQQADWFPLTFGGGTKVEIK | 5.49 |  |  |
| C5A (XPA23) VL L96W (antibody, V domains shown) VH: EVQLLESGGGLVQPGGSLRLSCAASGFTFSKYFMFWVRQAPGKGLEWVSVISPSGGMTRYADSVKGRFTISRDNSKNTLYLQMNSLRAEDTAVYYCARVGYGGNSDYWGQGTLVTVSS VL: DIQMTQSPSSVSASVGDRLTIICRASQDINRWLAWYQQTPGNAPKLLIHSATSLQSGVPSRFSGSGSGTDFTLTINSLQPEDFATYYCQQADSFPWTFGGGTKVEIK | 4.49 |  |  |
| C5A (XPA23) VL L96I (antibody, V domains shown) VH: EVQLLESGGGLVQPGGSLRLSCAASGFTFSKYFMFWVRQAPGKGLEWVSVISPSGGMTRYADSVKGRFTISRDNSKNTLYLQMNSLRAEDTAVYYCARVGYGGNSDYWGQGTLVTVSS VL: DIQMTQSPSSVSASVGDRLTIICRASQDINRWLAWYQQTPGNAPKLLIHSATSLQSGVPSRFSGSGSGTDFTLTINSLQPEDFATYYCQQADSFPITFGGGTKVEIK | 0.67 |  |  |
| C5A (XPA23) VH K31H (antibody, V domains shown) VH: EVQLLESGGGLVQPGGSLRLSCAASGFTFSHYFMFWVRQAPGKGLEWVSVISPSGGMTRYADSVKGRFTISRDNSKNTLYLQMNSLRAEDTAVYYCARVGYGGNSDYWGQGTLVTVSS VL: DIQMTQSPSSVSASVGDRLTIICRASQDINRWLAWYQQTPGNAPKLLIHSATSLQSGVPSRFSGSGSGTDFTLTINSLQPEDFATYYCQQADSFPLTFGGGTKVEIK | 1.11 | 1.11 |  |
| C5A (XPA23) VH K31R (antibody, V domains shown) VH: EVQLLESGGGLVQPGGSLRLSCAASGFTFSRYFMFWVRQAPGKGLEWVSVISPSGGMTRYADSVKGRFTISRDNSKNTLYLQMNSLRAEDTAVYYCARVGYGGNSDYWGQGTLVTVSS VL: DIQMTQSPSSVSASVGDRLTIICRASQDINRWLAWYQQTPGNAPKLLIHSATSLQSGVPSRFSGSGSGTDFTLTINSLQPEDFATYYCQQADSFPLTFGGGTKVEIK | 0.9 | 0.9 |  |
| C5A (XPA23) VH S30N (antibody, V domains shown) VH: EVQLLESGGGLVQPGGSLRLSCAASGFTFNKYFMFWVRQAPGKGLEWVSVISPSGGMTRYADSVKGRFTISRDNSKNTLYLQMNSLRAEDTAVYYCARVGYGGNSDYWGQGTLVTVSS VL: DIQMTQSPSSVSASVGDRLTIICRASQDINRWLAWYQQTPGNAPKLLIHSATSLQSGVPSRFSGSGSGTDFTLTINSLQPEDFATYYCQQADSFPLTFGGGTKVEIK | 0.15 | 0.15 |  |
| C5A (XPA23) VH Y32H (antibody, V domains shown) VH: EVQLLESGGGLVQPGGSLRLSCAASGFTFSKHFMFWVRQAPGKGLEWVSVISPSGGMTRYADSVKGRFTISRDNSKNTLYLQMNSLRAEDTAVYYCARVGYGGNSDYWGQGTLVTVSS VL: DIQMTQSPSSVSASVGDRLTIICRASQDINRWLAWYQQTPGNAPKLLIHSATSLQSGVPSRFSGSGSGTDFTLTINSLQPEDFATYYCQQADSFPLTFGGGTKVEIK | 0.62 | 0.62 |  |
| C5A (XPA23) VL P95F (antibody, V domains shown) VH: EVQLLESGGGLVQPGGSLRLSCAASGFTFSKYFMFWVRQAPGKGLEWVSVISPSGGMTRYADSVKGRFTISRDNSKNTLYLQMNSLRAEDTAVYYCARVGYGGNSDYWGQGTLVTVSS VL: DIQMTQSPSSVSASVGDRLTIICRASQDINRWLAWYQQTPGNAPKLLIHSATSLQSGVPSRFSGSGSGTDFTLTINSLQPEDFATYYCQQADSFFLTFGGGTKVEIK | 0.98 |  |  |
| C5A (XPA23) VL P95A (antibody, V domains shown) VH: EVQLLESGGGLVQPGGSLRLSCAASGFTFSKYFMFWVRQAPGKGLEWVSVISPSGGMTRYADSVKGRFTISRDNSKNTLYLQMNSLRAEDTAVYYCARVGYGGNSDYWGQGTLVTVSS VL: DIQMTQSPSSVSASVGDRLTIICRASQDINRWLAWYQQTPGNAPKLLIHSATSLQSGVPSRFSGSGSGTDFTLTINSLQPEDFATYYCQQADSFALTFGGGTKVEIK | 3.83 |  |  |
| C5A (XPA23) VH S30T (antibody, V domains shown) VH: EVQLLESGGGLVQPGGSLRLSCAASGFTFTKYFMFWVRQAPGKGLEWVSVISPSGGMTRYADSVKGRFTISRDNSKNTLYLQMNSLRAEDTAVYYCARVGYGGNSDYWGQGTLVTVSS VL: DIQMTQSPSSVSASVGDRLTIICRASQDINRWLAWYQQTPGNAPKLLIHSATSLQSGVPSRFSGSGSGTDFTLTINSLQPEDFATYYCQQADSFPLTFGGGTKVEIK | 0.06 |  | 0.06 |
| C5A (XPA23) VH K31Y (antibody, V domains shown) VH: EVQLLESGGGLVQPGGSLRLSCAASGFTFSYYFMFWVRQAPGKGLEWVSVISPSGGMTRYADSVKGRFTISRDNSKNTLYLQMNSLRAEDTAVYYCARVGYGGNSDYWGQGTLVTVSS VL: DIQMTQSPSSVSASVGDRLTIICRASQDINRWLAWYQQTPGNAPKLLIHSATSLQSGVPSRFSGSGSGTDFTLTINSLQPEDFATYYCQQADSFPLTFGGGTKVEIK | 0.04 | 0.04 |  |
| C5A (XPA23) VL L96F (antibody, V domains shown) VH: EVQLLESGGGLVQPGGSLRLSCAASGFTFSKYFMFWVRQAPGKGLEWVSVISPSGGMTRYADSVKGRFTISRDNSKNTLYLQMNSLRAEDTAVYYCARVGYGGNSDYWGQGTLVTVSS VL: DIQMTQSPSSVSASVGDRLTIICRASQDINRWLAWYQQTPGNAPKLLIHSATSLQSGVPSRFSGSGSGTDFTLTINSLQPEDFATYYCQQADSFPFTFGGGTKVEIK | 0.28 |  |  |
| C5A (XPA23) VL F94I (antibody, V domains shown) VH: EVQLLESGGGLVQPGGSLRLSCAASGFTFSKYFMFWVRQAPGKGLEWVSVISPSGGMTRYADSVKGRFTISRDNSKNTLYLQMNSLRAEDTAVYYCARVGYGGNSDYWGQGTLVTVSS VL: DIQMTQSPSSVSASVGDRLTIICRASQDINRWLAWYQQTPGNAPKLLIHSATSLQSGVPSRFSGSGSGTDFTLTINSLQPEDFATYYCQQADSIPLTFGGGTKVEIK | 0.88 |  |  |
| C5A (XPA23) VH Y32D (antibody, V domains shown) VH: EVQLLESGGGLVQPGGSLRLSCAASGFTFSKDFMFWVRQAPGKGLEWVSVISPSGGMTRYADSVKGRFTISRDNSKNTLYLQMNSLRAEDTAVYYCARVGYGGNSDYWGQGTLVTVSS VL: DIQMTQSPSSVSASVGDRLTIICRASQDINRWLAWYQQTPGNAPKLLIHSATSLQSGVPSRFSGSGSGTDFTLTINSLQPEDFATYYCQQADSFPLTFGGGTKVEIK | 0.68 | 0.68 |  |
| C5A (XPA23) VL F94L (antibody, V domains shown) VH: EVQLLESGGGLVQPGGSLRLSCAASGFTFSKYFMFWVRQAPGKGLEWVSVISPSGGMTRYADSVKGRFTISRDNSKNTLYLQMNSLRAEDTAVYYCARVGYGGNSDYWGQGTLVTVSS VL: DIQMTQSPSSVSASVGDRLTIICRASQDINRWLAWYQQTPGNAPKLLIHSATSLQSGVPSRFSGSGSGTDFTLTINSLQPEDFATYYCQQADSLPLTFGGGTKVEIK | 0.55 |  |  |
| C5A (XPA23) VH K31D (antibody, V domains shown) VH: EVQLLESGGGLVQPGGSLRLSCAASGFTFSDYFMFWVRQAPGKGLEWVSVISPSGGMTRYADSVKGRFTISRDNSKNTLYLQMNSLRAEDTAVYYCARVGYGGNSDYWGQGTLVTVSS VL: DIQMTQSPSSVSASVGDRLTIICRASQDINRWLAWYQQTPGNAPKLLIHSATSLQSGVPSRFSGSGSGTDFTLTINSLQPEDFATYYCQQADSFPLTFGGGTKVEIK | 0.04 | 0.04 |  |
